This note sets out measurements from article PMC4127255.

The target of assay [1] is acetylcholine-binding protein from Aplysia californica (Ac-AChBP) (Aplysia californica). Kind of assay: non-reduced SDS-PAGE.
Assay [2] shares this target. Kind of assay: SEC; […]; 50 mM NaCl, 50 mM Tris pH 8.0, 0.5 mL/min, […].

For “acetylcholine-binding protein from Aplysia californica (Ac-AChBP) (natural protein)”, the stoichiometry N in assay [1] and in assay [2] was 5 each time.
